Source: patent US20250154231A1
Where two headings read alike, the source gives them in different places.

Legend:
Test in all cases: cell-based or functional assay
[1] = target: SARS-CoV-2 Alpha spike (S) protein (SARS-CoV-2) (UniProt P0DTC2)
[2] = target: SARS-CoV-2 Beta spike (S) protein (SARS-CoV-2) (UniProt P0DTC2)
[3] = target: SARS-CoV-2 Delta spike (S) protein (SARS-CoV-2) (UniProt P0DTC2)
[4] = target: SARS-CoV-2 Gamma spike (S) protein (SARS-CoV-2) (UniProt P0DTC2)
[5] = target: SARS-CoV-2 Omicron BA.1 spike (S) protein of the live isolate (SARS-CoV-2) (UniProt P0DTC2)
[6] = target: SARS-CoV-2 Omicron BA.1.1 spike (S) protein (SARS-CoV-2) (UniProt P0DTC2)
[7] = target: SARS-CoV-2 Omicron BA.2 spike (S) protein (SARS-CoV-2) (UniProt P0DTC2)
[8] = target: SARS-CoV-2 Victoria spike (S) protein (SARS-CoV-2) (UniProt P0DTC2)
[9] = target: SARS-CoV-2 spike (S) protein, Omicron BA.1 (SARS-CoV-2) (UniProt P0DTC2)
[10] = target: SARS-CoV-2 spike (S) protein, Omicron BA.1.1 (SARS-CoV-2) (UniProt P0DTC2)
[11] = target: SARS-CoV-2 spike (S) protein, Omicron BA.2 (SARS-CoV-2) (UniProt P0DTC2)
[12] = target: SARS-CoV-2 spike (S) protein, Omicron BA.3 (SARS-CoV-2) (UniProt P0DTC2)
[13] = target: SARS-CoV-2 spike (S) protein, Omicron BA.4.6 (SARS-CoV-2) (UniProt P0DTC2)
[14] = target: SARS-CoV-2 spike (S) protein, Omicron BA.4/5 (SARS-CoV-2) (UniProt P0DTC2)
[15] = target: SARS-CoV-2 spike (S) protein, Victoria strain (SARS-CoV-2) (UniProt P0DTC2)
[16] = target: SARS-CoV-2 spike (S) protein, Omicron BA.2.75 (SARS-CoV-2) (UniProt P0DTC2)
[17] = target: SARS-CoV-2 spike (S) protein, Omicron BA.2 (SARS-CoV-2) (UniProt P0DTC2); remark: listed apart in the source
[18] = target: SARS-CoV-2 spike (S) protein, Omicron BA.2.3.20 (SARS-CoV-2) (UniProt P0DTC2)
[19] = target: SARS-CoV-2 spike (S) protein, Omicron BA.2.75 (SARS-CoV-2) (UniProt P0DTC2); remark: listed apart in the source
[20] = target: SARS-CoV-2 spike (S) protein, Omicron BA.2.75.2 (SARS-CoV-2) (UniProt P0DTC2)
[21] = target: SARS-CoV-2 spike (S) protein, Omicron BA.4.6 (SARS-CoV-2) (UniProt P0DTC2); remark: listed apart in the source
[22] = target: SARS-CoV-2 spike (S) protein, Omicron BA.4/5 (SARS-CoV-2) (UniProt P0DTC2); remark: listed apart in the source
[23] = target: SARS-CoV-2 spike (S) protein, Omicron BJ.1 (SARS-CoV-2) (UniProt P0DTC2)
[24] = target: SARS-CoV-2 spike (S) protein, Victoria strain (SARS-CoV-2) (UniProt P0DTC2); remark: listed apart in the source

ADG20 (antibody)
0.004 µg/mL: IC50, authentic virus neutralization [8]
0.003 µg/mL: IC50, pseudoviral neutralization [15] | pseudovirus neutralisation IC50 [15]
0.009 µg/mL: IC50, authentic virus neutralization [4]
> 10 µg/mL: IC50, authentic virus neutralization [7] | IC50, pseudoviral neutralization [11] | pseudovirus neutralisation IC50 [11] | IC50, pseudoviral neutralization [12] | pseudovirus neutralisation IC50 [12] | IC50, pseudoviral neutralization [13] | IC50, pseudoviral neutralization [14] | pseudovirus neutralisation IC50 [14] | pseudovirus neutralisation IC50 [16] | IC50, pseudoviral neutralization [17] | IC50, pseudoviral neutralization [18] | IC50, pseudoviral neutralization [19] | IC50, pseudoviral neutralization [20] | IC50, pseudoviral neutralization [21] | IC50, pseudoviral neutralization [22] | IC50, pseudoviral neutralization [23]
0.253 µg/mL: IC50, pseudoviral neutralization [10] | pseudovirus neutralisation IC50 [10]
1.27 µg/mL: IC50, authentic virus neutralization [6]
1.1 µg/mL: IC50, authentic virus neutralization [5]
0.01 µg/mL: IC50, authentic virus neutralization [2]
0.006 µg/mL: IC50, authentic virus neutralization [1] | IC50, authentic virus neutralization [3]
0.348 µg/mL: IC50, pseudoviral neutralization [9] | pseudovirus neutralisation IC50 [9]

AZD1061 (antibody)
0.015 µg/mL: IC50, pseudoviral neutralization [14] | pseudovirus neutralisation IC50 [14] | IC50, pseudoviral neutralization [22]
3.49 µg/mL: IC50, authentic virus neutralization [5]
0.013 µg/mL: IC50, authentic virus neutralization [8]
> 10 µg/mL: IC50, authentic virus neutralization [6] | IC50, pseudoviral neutralization [10] | pseudovirus neutralisation IC50 [10] | IC50, pseudoviral neutralization [13] | IC50, pseudoviral neutralization [18] | IC50, pseudoviral neutralization [20] | IC50, pseudoviral neutralization [21] | IC50, pseudoviral neutralization [23]
0.308 µg/mL: IC50, pseudoviral neutralization [9] | pseudovirus neutralisation IC50 [9]
0.038 µg/mL: IC50, authentic virus neutralization [3]
0.007 µg/mL: IC50, authentic virus neutralization [4]
0.021 µg/mL: pseudovirus neutralisation IC50 [16] | IC50, pseudoviral neutralization [19]
0.028 µg/mL: IC50, authentic virus neutralization [7]
0.002 µg/mL: IC50, pseudoviral neutralization [15] | pseudovirus neutralisation IC50 [15] | IC50, pseudoviral neutralization [24]
0.014 µg/mL: IC50, authentic virus neutralization [2]
0.008 µg/mL: IC50, pseudoviral neutralization [11] | pseudovirus neutralisation IC50 [11] | IC50, pseudoviral neutralization [17]
0.012 µg/mL: IC50, authentic virus neutralization [1]
0.019 µg/mL: IC50, pseudoviral neutralization [12] | pseudovirus neutralisation IC50 [12]

Ly-CoV555 (antibody)
> 10 µg/mL: IC50, pseudoviral neutralization [9] | pseudovirus neutralisation IC50 [9] | IC50, pseudoviral neutralization [10] | pseudovirus neutralisation IC50 [10] | IC50, pseudoviral neutralization [11] | pseudovirus neutralisation IC50 [11] | IC50, pseudoviral neutralization [12] | pseudovirus neutralisation IC50 [12] | IC50, pseudoviral neutralization [13] | IC50, pseudoviral neutralization [14] | pseudovirus neutralisation IC50 [14] | pseudovirus neutralisation IC50 [16] | IC50, pseudoviral neutralization [17] | IC50, pseudoviral neutralization [18] | IC50, pseudoviral neutralization [19] | IC50, pseudoviral neutralization [20] | IC50, pseudoviral neutralization [21] | IC50, pseudoviral neutralization [22] | IC50, pseudoviral neutralization [23]
0.002 µg/mL: IC50, pseudoviral neutralization [15] | pseudovirus neutralisation IC50 [15] | IC50, pseudoviral neutralization [24]

REGN10933 (antibody)
0.001 µg/mL: IC50, pseudoviral neutralization [15] | pseudovirus neutralisation IC50 [15] | IC50, pseudoviral neutralization [24]
3.28 µg/mL: IC50, authentic virus neutralization [2]
0.003 µg/mL: IC50, authentic virus neutralization [3]
6.18 µg/mL: IC50, authentic virus neutralization [4]
> 10 µg/mL: IC50, authentic virus neutralization [5] | IC50, authentic virus neutralization [6] | IC50, authentic virus neutralization [7] | IC50, pseudoviral neutralization [9] | pseudovirus neutralisation IC50 [9] | IC50, pseudoviral neutralization [10] | pseudovirus neutralisation IC50 [10] | IC50, pseudoviral neutralization [11] | pseudovirus neutralisation IC50 [11] | IC50, pseudoviral neutralization [12] | pseudovirus neutralisation IC50 [12] | IC50, pseudoviral neutralization [13] | IC50, pseudoviral neutralization [14] | pseudovirus neutralisation IC50 [14] | pseudovirus neutralisation IC50 [16] | IC50, pseudoviral neutralization [17] | IC50, pseudoviral neutralization [19] | IC50, pseudoviral neutralization [20] | IC50, pseudoviral neutralization [21] | IC50, pseudoviral neutralization [22] | IC50, pseudoviral neutralization [23]
0.014 µg/mL: IC50, authentic virus neutralization [1]
8.62 µg/mL: IC50, pseudoviral neutralization [18]
0.004 µg/mL: IC50, authentic virus neutralization [8]

REGN10987 (antibody)
0.032 µg/mL: IC50, authentic virus neutralization [8]
0.028 µg/mL: IC50, authentic virus neutralization [1]
0.615 µg/mL: IC50, pseudoviral neutralization [17]
0.007 µg/mL: IC50, authentic virus neutralization [2]
0.616 µg/mL: IC50, pseudoviral neutralization [11] | pseudovirus neutralisation IC50 [11]
1.85 µg/mL: IC50, authentic virus neutralization [7]
0.013 µg/mL: IC50, authentic virus neutralization [4]
0.017 µg/mL: IC50, authentic virus neutralization [3]
> 10 µg/mL: IC50, authentic virus neutralization [5] | IC50, authentic virus neutralization [6] | IC50, pseudoviral neutralization [9] | pseudovirus neutralisation IC50 [9] | IC50, pseudoviral neutralization [10] | pseudovirus neutralisation IC50 [10] | IC50, pseudoviral neutralization [12] | pseudovirus neutralisation IC50 [12] | IC50, pseudoviral neutralization [13] | IC50, pseudoviral neutralization [14] | pseudovirus neutralisation IC50 [14] | pseudovirus neutralisation IC50 [16] | IC50, pseudoviral neutralization [18] | IC50, pseudoviral neutralization [19] | IC50, pseudoviral neutralization [20] | IC50, pseudoviral neutralization [21] | IC50, pseudoviral neutralization [22] | IC50, pseudoviral neutralization [23]
0.002 µg/mL: IC50, pseudoviral neutralization [15] | pseudovirus neutralisation IC50 [15] | IC50, pseudoviral neutralization [24]
